Measured values published in the supplement of paper PMC12455559.
± gives the standard deviation of the averaged measurements.

Legend:
[1] = PET hydrolysis, aromatic products released after 48 h (umol product/mg enzyme); higher = more PET depolymerization activity
Summary of the method: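 The measure of PET hydrolysis activity is aromatic product released into the supernatant, given per mg enzyme. Nickel-purified, SUMO-cleaved enzyme without tag was added at 5 μg (50 μL) to 3.5 mg amorphous PET film or crystalline PET powder in 450 μL of citrate, phosphate or glycine buffer spanning pH 4.5 to 8.5. After 48 h at 40 or 60 °C in sealed plates without shaking, absorbance at 260 and 280 nm was taken against buffer blanks.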

[2] = melting temperature (DSF); higher = more thermostable
Summary of the method: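 Candidate enzymes were expressed in E. coli C41(DE3), purified on nickel beads and released by SUMO protease cleavage. For differential scanning fluorimetry, 45 μL enzyme (0 to 0.3 mg/mL) was mixed with 5 μL 5X Sypro Orange in sealed PCR plates on a Bio-Rad CFX96 instrument. Fluorescence was read from 25 °C in steps of 0.3 °C per cycle (ramp 0.3 °C/s) for 250 cycles. The read-out is melting temperature.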

[3] = purified protein yield per well (BCA); higher = higher soluble expression
Summary of the method: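 Candidate enzymes were made in 2 mL autoinduction cultures of E. coli C41(DE3) with 100 µg/mL kanamycin, at 37 °C for 2 h and then 18 °C for 40 h, and purified with Ni-charged magnetic beads and SUMO protease cleavage. The Pierce Rapid Gold BCA kit gave purified protein yield per well. Values lower than 25 ug (0.1 mg/mL) are below the detection threshold.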

[4] = substrate: cryPow, 40 °C, pH 5.5
[5] = substrate: cryPow, 40 °C, pH 6.5
[6] = substrate: cryPow, 40 °C, pH 7.5
[7] = substrate: cryPow, 40 °C, pH 8.5
[8] = substrate: cryPow, 60 °C, pH 5.5
[9] = substrate: cryPow, 60 °C, pH 6.5
[10] = substrate: cryPow, 60 °C, pH 7.5
[11] = substrate: cryPow, 60 °C, pH 8.5
[12] = substrate: cryPow, 40 °C, pH 4.5
[13] = substrate: aFilm, 40 °C, pH 5.5
[14] = substrate: aFilm, 40 °C, pH 6.5
[15] = substrate: aFilm, 40 °C, pH 7.5
[16] = substrate: aFilm, 60 °C, pH 5.5
[17] = substrate: aFilm, 60 °C, pH 6.5
[18] = substrate: aFilm, 60 °C, pH 7.5
[19] = substrate: aFilm, 40 °C, pH 4.5
[20] = substrate: aFilm, 60 °C, pH 4.5
[21] = substrate: cryPow, 60 °C, pH 4.5

Sequence | PET hydrolysis [1, 4] | PET hydrolysis [1, 5] | PET hydrolysis [1, 6] | PET hydrolysis [1, 7] | PET hydrolysis [1, 8] | PET hydrolysis [1, 9] | PET hydrolysis [1, 10] | PET hydrolysis [1, 11] | melting temperature [2] [C] | purified protein yield per well [3] [µg] | PET hydrolysis [1, 12] | PET hydrolysis [1, 13] | PET hydrolysis [1, 14] | PET hydrolysis [1, 15] | PET hydrolysis ([1]; substrate: aFilm, 40 °C, pH 8.5) | PET hydrolysis [1, 16] | PET hydrolysis [1, 17] | PET hydrolysis [1, 18] | PET hydrolysis ([1]; substrate: aFilm, 60 °C, pH 8.5) | PET hydrolysis [1, 19] | PET hydrolysis [1, 20] | PET hydrolysis [1, 21]
ADNPYQRGPDPTNASIEAATGPFAVGTQPIVGASGFGGGQIYYPTDTSQTYGAVVIVPGFISVWAQLNWLGPRLASQGFVVIGIETSVITDLPDPRGDQALAALDWATTRSPVASRIDRTRLAAAGWSMGGGGLRRAALQRPSLKAIVGMAPWNGERNWSAVTVPTLFFGGSSDAVASPNDHAKPFYNSITRAEKDYIELRNADHFFPTSANTTMAKYFISWLKRWVDNDTRYTQFLCPGPSTGLFAPVSASMNTCPF [DP077] | 24 | 73 | 90 | 87 | 6 | 23 | 32 | 26 | 60.1 | 87 | – | – | – | – | – | – | – | – | – | – | – | –
ADNPYQRGPDPTPAGVAASRGPFATAQTTVAPGNGFNGGTIYYPTDTSAGTWGAVAIVPGYTALFADEEAWMGPWLSSFGFVVIGIETNSRTDFDVARGTQLLAALDYLTQQSPVRDRVDTSRLSVIGHSMGGGGVVYATEHRPSLKAAVALAPFSPSQDMSTDRVPTMVMAGQNDTVVTPSYLDGLYATMPAATQSDFVQIAGADHVYYTHPQSTEMRILIPWLKIFVDNDTRYTQFLCPSLSDSSGISIYRSKCPYVPPGTSTTGGTTSGTTSGGTTTGGTTSGGTTTGGTTSGGTTSGGTSGSACTASYATVNTWSGGFQGEVTVTAGGKPVNGWTVRWTLAGGQGISQVWNGTVSTSGSDVSVRNVSYNGSLQPSTSTTFGFLGTGTPSDVSLSCTSP [ESM043] | 11 | 5 | < 3 | – | – | – | – | – | 37 | 31.4 | 4 | – | – | – | – | – | – | – | – | – | – | –
ADNPYQRGPDPTPALVASVNGPFATASVSVPAGYGFGGGMIYYPTDTSQGTFGGIAISPGYTALFSAELAWMGPWLASHGFVVIGIETNNRNDFDEARGTQLLAALDYLTQQSPVRNRVDPNRLAVAGHSMGGGGALNAAIRRPSLKAAVGLAPFSPSSNLANDRVPTMVFSGQQDTVVTPSYVTGLYNSLPSTTQSAYLEIAGGDHGFPVGRPNQVMIRTMLPFVKIFVDYDTRYSPFLCPLSDTSGVVTYRSTCPLTPPGLPTTPPTTPPTTVPTSPPTGGPTTPPTTPSQPGGACTATYRTVNSWPGGFQGEVTVTAGNSAINGWTVRWTLDSGQAITQVWNGEVSTSGSTVSVRNAPYNGSLPPSGSTTFGFLSSGSPSSPSLTCTSP [DP059] | 5.5 ± 0.71 | 21.5 ± 3.5 | 35 ± 2.8 | 32.5 ± 3.5 | 32.5 ± 2.1 | 47 ± 8.5 | 19.5 ± 3.5 | 34 ± 1.4 | 74.2 | 255 | – | < 3 | < 3 | < 3 | < 3 | 2 ± 2.8 | < 3 | < 3 | < 3 | – | – | –
ADNPYQRGPDPTPASIAADHGPFATAQTTIPKGNGLGGGIVYYPTDTSQGTFGAIAIAPGYGTEWRWYGWLGPRLASFGFVVVGIETNSLSDYADARADQLLAALDWLVTSSPVRDRVDRTRLAVGGHSMGGGGALVAATRRPSLRSAVGMAPYVPDGILRGTSVPTILFGGQADTTVTPAYLASAYATIPATVPRAYPEIAGEGHGFAAGGGGGNSGAFARVMMVWLKVFVDADTRYPPFLCPTLSNTSGISKYQASCPLGPGGTIPPPDTSRLANANAGRCLDASGAGTANGTKVILWTCNHGANQQWNRT [ESM139] | < 3 | 1.5 ± 2.1 | 3.5 ± 0.71 | – | < 3 | < 3 | < 3 | – | 65.5 | 305 | < 3 | < 3 | < 3 | < 3 | – | < 3 | < 3 | < 3 | – | < 3 | < 3 | < 3
ADNPYQRGPDPTPASVGASRGTFATAQVSVPAGNGFGGGVIYYPTDTSQGRFGAVAVVPGYTATWAAEGAWMGPWLASFGFVVIGIDTNSRNDWDTARGTQLLAALDYLTQRSSVRDRVDASRAAVMGHSMGGGGAIYAALQRPSLKTTVGLAPFSASQTLNNMRVPTMLLAGQNDGTTTPASIRNYYGQVPSGVEKAYLELTGAGHGFPTSNNPTMMRNVIPWLKIFVDSDTRYTQFLCPLSNTNGIRSYESTCPLVPSPVPTDPPTSAPPTSTPPTTPPPTTPPPTTPAPGGPCAASYRTVNSWSGGFQGEVTVRAGGAPINGWTVRWTLGGGQSISQVWNGTLSTSGSTATVRNAPYNGSLPASGSTTFGFIANGSPSAPTLTCASP [TEP013] | 5.5 ± 0.71 | 27 ± 1.4 | 53.5 ± 2.1 | – | < 3 | 6 ± 1.4 | 10 ± 1.4 | – | 64 | 176 | < 3 | < 3 | < 3 | < 3 | – | < 3 | < 3 | < 3 | – | < 3 | < 3 | < 3
